Assay results reported in article PMC8065156, “Specificity of AMPylation of the human chaperone BiP is mediated by TPR motifs of FICD” (Nature Communications, 2021).

Key:
BiP 19–654 [1] = biological target: T1, BiP 19–654 (human, UniProt P11021 19-654); experiment: cell-based or functional assay
BiP 28–549 T229A = biological target: T2, BiP 28–549 T229A (human, UniProt P11021 28-549, T229A, T518 covalently linked through TReND-2 to C404 of FICD); experiment: crystal structure; complex covalently linked through TReND-2 (C404 of FICD to T518 of BiP); crystallised with 1 mM AMP-PNP, 1 mM MgCl2, 10% glycerol; 0.2 M NaCl, 0.1 M Na/K phosphate pH 6.2, 10% PEG 8000, 19 °C; conditions: both partners purified
T2 construct: BiP, human, residues 28-549 of NP_005338.1; also called complexed BiP; source: E. coli Rosetta (DE3), purified (Ni-NTA, SEC); not shown: His6, N-terminal, cleaved
T2 sequence (P11021 28-549 T229A): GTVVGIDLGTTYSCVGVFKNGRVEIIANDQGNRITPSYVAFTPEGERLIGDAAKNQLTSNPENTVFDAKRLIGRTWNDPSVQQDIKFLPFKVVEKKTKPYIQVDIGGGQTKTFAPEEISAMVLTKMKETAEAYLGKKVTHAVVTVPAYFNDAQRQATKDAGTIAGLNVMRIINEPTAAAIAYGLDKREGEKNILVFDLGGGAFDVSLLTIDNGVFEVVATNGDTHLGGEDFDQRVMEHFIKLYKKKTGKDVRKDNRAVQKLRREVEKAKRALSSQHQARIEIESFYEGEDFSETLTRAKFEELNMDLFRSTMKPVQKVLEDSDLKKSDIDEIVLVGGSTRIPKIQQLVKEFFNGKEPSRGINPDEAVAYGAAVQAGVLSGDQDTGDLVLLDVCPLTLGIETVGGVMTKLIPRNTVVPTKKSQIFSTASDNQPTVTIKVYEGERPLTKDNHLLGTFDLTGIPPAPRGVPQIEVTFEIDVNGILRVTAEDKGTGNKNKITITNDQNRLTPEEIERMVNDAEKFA

BiP 19–654 [2] = biological target: T1, BiP 19–654
BiP 19–654 [3] = biological target: T1, BiP 19–654; remark: listed apart in the source
BiP 19–654 R197A = BiP 19–654 R197A (human, UniProt P11021 19-654, R197A); experiment: cell-based or functional assay
Chain of BiP 19–654 R197A (P11021 19-654 R197A): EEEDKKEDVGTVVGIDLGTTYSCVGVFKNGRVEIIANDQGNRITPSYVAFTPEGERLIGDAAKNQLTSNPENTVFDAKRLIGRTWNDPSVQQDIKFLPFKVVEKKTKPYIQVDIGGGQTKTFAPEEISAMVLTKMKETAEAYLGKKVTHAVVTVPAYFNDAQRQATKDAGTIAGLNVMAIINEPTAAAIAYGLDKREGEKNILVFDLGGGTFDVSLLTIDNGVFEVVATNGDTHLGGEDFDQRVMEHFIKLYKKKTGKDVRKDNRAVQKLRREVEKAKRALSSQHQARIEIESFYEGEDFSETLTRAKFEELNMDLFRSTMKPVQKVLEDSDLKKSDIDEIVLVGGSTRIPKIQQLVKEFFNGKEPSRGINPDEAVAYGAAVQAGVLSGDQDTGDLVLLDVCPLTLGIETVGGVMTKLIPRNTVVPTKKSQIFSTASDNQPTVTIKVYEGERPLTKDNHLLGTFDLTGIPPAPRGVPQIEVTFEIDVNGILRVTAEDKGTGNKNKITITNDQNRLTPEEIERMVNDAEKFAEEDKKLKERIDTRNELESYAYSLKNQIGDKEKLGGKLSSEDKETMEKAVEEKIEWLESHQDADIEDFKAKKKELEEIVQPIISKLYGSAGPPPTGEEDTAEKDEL

BiP 19–654 E217A = BiP 19–654 E217A (human, UniProt P11021 19-654, E217A); experiment: cell-based or functional assay
Chain of BiP 19–654 E217A (P11021 19-654 E217A): as the sequence (P11021 19-654 R197A) above, with A179R, E199A counted along it

BiP 19–654 D238A = BiP 19–654 D238A (human, UniProt P11021 19-654, D238A); experiment: cell-based or functional assay
Chain of BiP 19–654 D238A (P11021 19-654 D238A): as the sequence (P11021 19-654 R197A) above, with A179R, D220A counted along it

BiP 19–654 V241A = BiP 19–654 V241A (human, UniProt P11021 19-654, V241A); experiment: cell-based or functional assay
Chain of BiP 19–654 V241A (P11021 19-654 V241A): as the sequence (P11021 19-654 R197A) above, with A179R, V223A counted along it

BiP 19–654 V415A = BiP 19–654 V415A (human, UniProt P11021 19-654, V415A); experiment: cell-based or functional assay
Chain of BiP 19–654 V415A (P11021 19-654 V415A): as the sequence (P11021 19-654 R197A) above, with A179R, V397A counted along it

BiP 19–654 T229A T518A = biological target: T3, BiP 19–654 T229A T518A (human, UniProt P11021 19-654, T229A | T518A); experiment: SEC; 5 µM FICD incubated with 100 µM BiP in HKM buffer with 5 mM ATP for at least 2 h; Superdex 10/300 75 pg; conditions: both partners purified
T3 construct: BiP, human, residues 19-654 of NP_005338.1; source: E. coli Rosetta (DE3), purified (Ni-NTA, SEC)
T3 sequence (P11021 19-654 T229A/T518A): as the sequence (P11021 19-654 R197A) above, with A179R, T211A, T500A counted along it

T1 sequence (P11021 19-654): as the sequence (P11021 19-654 R197A) above, with A179R counted along it

B1: FICD 102–445 E234G E404C^TReND-2 (enzyme, human, UniProt Q9BVA6 102-445, looked up)
chain: GKLEARAALNQALEMKRQGKREKAQKLFMHALKMDPDFVDALTEFGIFSEEDKDIIQADYLYTRALTISPYHEKALVNRDRTLPLVEEIDQRYFSIIDSKVKKVMSIPKGNSALRRVMEETYYHHIYHTVAIGGNTLTLSEIRHILETRYAVPGKSLEEQNEVIGMHAAMKYINTTLVSRIGSVTISDVLEIHRRVLGYVDPVEAGRFRTTQVLVGHHIPPHPQDVEKQMQEFVQWLNSEEAMNLHPVEFAALAHYKLVYIHPFIDGNGRTSRLLMNLILMQAGYPPITIRKEQRSDYYHVLCAANEGDVRPFIRFIAKCTETTLDTLLFATTEYSVALPEAQP
modifications: TReND-2 (thiol-reactive nucleotide derivative) on C404
BiP 19–654 [1]
  rate of covalent ternary complex formation (SDS-PAGE, densitometry) with 0.5 mM ATP against 0.5 mM ADP: ~15 fold faster
  rate of covalent ternary complex formation (SDS-PAGE, densitometry) without nucleotide against 0.5 mM ATP: 173 fold slower

B2: FICD 102–445 T168A T183A E234G L258D E404C^TReND-2 (enzyme, human, UniProt Q9BVA6 102-445, looked up)
chain: GKLEARAALNQALEMKRQGKREKAQKLFMHALKMDPDFVDALTEFGIFSEEDKDIIQADYLYTRALAISPYHEKALVNRDRALPLVEEIDQRYFSIIDSKVKKVMSIPKGNSALRRVMEETYYHHIYHTVAIGGNTLTLSEIRHILETRYAVPGKSDEEQNEVIGMHAAMKYINTTLVSRIGSVTISDVLEIHRRVLGYVDPVEAGRFRTTQVLVGHHIPPHPQDVEKQMQEFVQWLNSEEAMNLHPVEFAALAHYKLVYIHPFIDGNGRTSRLLMNLILMQAGYPPITIRKEQRSDYYHVLCAANEGDVRPFIRFIAKCTETTLDTLLFATTEYSVALPEAQP
modifications: TReND-2 (thiol-reactive nucleotide derivative) on C404, covalently linked to T518 of BiP
notes: FICD (HYPE), human, residues 102-445 of NP_009007.2; also called FICD^TReND-2; HYPE; source: E. coli Rosetta (DE3), purified (Ni-NTA, SEC)
BiP 28–549 T229A
  binding result: binds

B3: FICD 102–458 L258D E105A (enzyme)
chain: GKLAARAALNQALEMKRQGKREKAQKLFMHALKMDPDFVDALTEFGIFSEEDKDIIQADYLYTRALTISPYHEKALVNRDRTLPLVEEIDQRYFSIIDSKVKKVMSIPKGNSALRRVMEETYYHHIYHTVAIEGNTLTLSEIRHILETRYAVPGKSDEEQNEVIGMHAAMKYINTTLVSRIGSVTISDVLEIHRRVLGYVDPVEAGRFRTTQVLVGHHIPPHPQDVEKQMQEFVQWLNSEEAMNLHPVEFAALAHYKLVYIHPFIDGNGRTSRLLMNLILMQAGYPPITIRKEQRSDYYHVLEAANEGDVRPFIRFIAKCTETTLDTLLFATTEYSVALPEAQPNHSGFKETLPVKP
BiP 19–654 [2]
  AMPylation of BiP 19–654 WT by the FICD 102–458 L258D mutant, 30 min, western blot with αAMP antibody, against FICD L258D: 80 % reduction

B4: FICD 102–458 L258D E404A (enzyme)
chain: GKLEARAALNQALEMKRQGKREKAQKLFMHALKMDPDFVDALTEFGIFSEEDKDIIQADYLYTRALTISPYHEKALVNRDRTLPLVEEIDQRYFSIIDSKVKKVMSIPKGNSALRRVMEETYYHHIYHTVAIEGNTLTLSEIRHILETRYAVPGKSDEEQNEVIGMHAAMKYINTTLVSRIGSVTISDVLEIHRRVLGYVDPVEAGRFRTTQVLVGHHIPPHPQDVEKQMQEFVQWLNSEEAMNLHPVEFAALAHYKLVYIHPFIDGNGRTSRLLMNLILMQAGYPPITIRKEQRSDYYHVLAAANEGDVRPFIRFIAKCTETTLDTLLFATTEYSVALPEAQPNHSGFKETLPVKP
BiP 19–654 [3]
  AMPylation of BiP 19–654 WT by the FICD 102–458 L258D Fic-domain mutant, 30 min, western blot with αAMP antibody, against FICD L258D: 75 % impaired

B5: FICD 102–458 L258D H401A (enzyme)
chain: GKLEARAALNQALEMKRQGKREKAQKLFMHALKMDPDFVDALTEFGIFSEEDKDIIQADYLYTRALTISPYHEKALVNRDRTLPLVEEIDQRYFSIIDSKVKKVMSIPKGNSALRRVMEETYYHHIYHTVAIEGNTLTLSEIRHILETRYAVPGKSDEEQNEVIGMHAAMKYINTTLVSRIGSVTISDVLEIHRRVLGYVDPVEAGRFRTTQVLVGHHIPPHPQDVEKQMQEFVQWLNSEEAMNLHPVEFAALAHYKLVYIHPFIDGNGRTSRLLMNLILMQAGYPPITIRKEQRSDYYAVLEAANEGDVRPFIRFIAKCTETTLDTLLFATTEYSVALPEAQPNHSGFKETLPVKP
BiP 19–654 [3]
  AMPylation of BiP 19–654 WT by the FICD 102–458 L258D Fic-domain mutant, 30 min, western blot with αAMP antibody, against FICD L258D: 60 % impaired

B6: FICD 102–458 L258D K124A (enzyme)
chain: GKLEARAALNQALEMKRQGKREAAQKLFMHALKMDPDFVDALTEFGIFSEEDKDIIQADYLYTRALTISPYHEKALVNRDRTLPLVEEIDQRYFSIIDSKVKKVMSIPKGNSALRRVMEETYYHHIYHTVAIEGNTLTLSEIRHILETRYAVPGKSDEEQNEVIGMHAAMKYINTTLVSRIGSVTISDVLEIHRRVLGYVDPVEAGRFRTTQVLVGHHIPPHPQDVEKQMQEFVQWLNSEEAMNLHPVEFAALAHYKLVYIHPFIDGNGRTSRLLMNLILMQAGYPPITIRKEQRSDYYHVLEAANEGDVRPFIRFIAKCTETTLDTLLFATTEYSVALPEAQPNHSGFKETLPVKP
BiP 19–654 [2]
  AMPylation of BiP 19–654 WT by the FICD 102–458 L258D mutant, 30 min, western blot with αAMP antibody, against FICD L258D: > 98 % reduction

B7: FICD 102–458 L258D K121A (enzyme)
chain: GKLEARAALNQALEMKRQGAREKAQKLFMHALKMDPDFVDALTEFGIFSEEDKDIIQADYLYTRALTISPYHEKALVNRDRTLPLVEEIDQRYFSIIDSKVKKVMSIPKGNSALRRVMEETYYHHIYHTVAIEGNTLTLSEIRHILETRYAVPGKSDEEQNEVIGMHAAMKYINTTLVSRIGSVTISDVLEIHRRVLGYVDPVEAGRFRTTQVLVGHHIPPHPQDVEKQMQEFVQWLNSEEAMNLHPVEFAALAHYKLVYIHPFIDGNGRTSRLLMNLILMQAGYPPITIRKEQRSDYYHVLEAANEGDVRPFIRFIAKCTETTLDTLLFATTEYSVALPEAQPNHSGFKETLPVKP
BiP 19–654 [2]
  AMPylation of BiP 19–654 WT by the FICD 102–458 L258D mutant, 30 min, western blot with αAMP antibody, against FICD L258D: > 98 % reduction

B8: FICD 102–458 L258D K127A (enzyme)
chain: GKLEARAALNQALEMKRQGKREKAQALFMHALKMDPDFVDALTEFGIFSEEDKDIIQADYLYTRALTISPYHEKALVNRDRTLPLVEEIDQRYFSIIDSKVKKVMSIPKGNSALRRVMEETYYHHIYHTVAIEGNTLTLSEIRHILETRYAVPGKSDEEQNEVIGMHAAMKYINTTLVSRIGSVTISDVLEIHRRVLGYVDPVEAGRFRTTQVLVGHHIPPHPQDVEKQMQEFVQWLNSEEAMNLHPVEFAALAHYKLVYIHPFIDGNGRTSRLLMNLILMQAGYPPITIRKEQRSDYYHVLEAANEGDVRPFIRFIAKCTETTLDTLLFATTEYSVALPEAQPNHSGFKETLPVKP
BiP 19–654 [2]
  AMPylation of BiP 19–654 WT by the FICD 102–458 L258D mutant, 30 min, western blot with αAMP antibody, against FICD L258D: > 98 % reduction

B9: FICD 102–458 L258D R396A (enzyme)
chain: GKLEARAALNQALEMKRQGKREKAQKLFMHALKMDPDFVDALTEFGIFSEEDKDIIQADYLYTRALTISPYHEKALVNRDRTLPLVEEIDQRYFSIIDSKVKKVMSIPKGNSALRRVMEETYYHHIYHTVAIEGNTLTLSEIRHILETRYAVPGKSDEEQNEVIGMHAAMKYINTTLVSRIGSVTISDVLEIHRRVLGYVDPVEAGRFRTTQVLVGHHIPPHPQDVEKQMQEFVQWLNSEEAMNLHPVEFAALAHYKLVYIHPFIDGNGRTSRLLMNLILMQAGYPPITIRKEQASDYYHVLEAANEGDVRPFIRFIAKCTETTLDTLLFATTEYSVALPEAQPNHSGFKETLPVKP
BiP 19–654 [3]
  AMPylation of BiP 19–654 WT by the FICD 102–458 L258D Fic-domain mutant, 30 min, western blot with αAMP antibody, against FICD L258D: 95 % decrease

B10: FICD 102–458 L258D (enzyme, human, UniProt Q9BVA6 102-458, looked up)
chain: GKLEARAALNQALEMKRQGKREKAQKLFMHALKMDPDFVDALTEFGIFSEEDKDIIQADYLYTRALTISPYHEKALVNRDRTLPLVEEIDQRYFSIIDSKVKKVMSIPKGNSALRRVMEETYYHHIYHTVAIEGNTLTLSEIRHILETRYAVPGKSDEEQNEVIGMHAAMKYINTTLVSRIGSVTISDVLEIHRRVLGYVDPVEAGRFRTTQVLVGHHIPPHPQDVEKQMQEFVQWLNSEEAMNLHPVEFAALAHYKLVYIHPFIDGNGRTSRLLMNLILMQAGYPPITIRKEQRSDYYHVLEAANEGDVRPFIRFIAKCTETTLDTLLFATTEYSVALPEAQPNHSGFKETLPVKP
notes: FICD (HYPE), human, residues 102-458 of NP_009007.2; also called FICD L258D; monomeric FICD; source: E. coli Rosetta (DE3), purified (Ni-NTA, SEC)
BiP 19–654 R197A
  AMPylation of the BiP 19–654 mutant by FICD 102–458 L258D, 30 min, western blot with αAMP antibody, against BiP WT: > 80 % decrease
BiP 19–654 E217A
  AMPylation of the BiP 19–654 mutant by FICD 102–458 L258D, 30 min, western blot with αAMP antibody, against BiP WT: > 80 % decrease
BiP 19–654 D238A
  AMPylation of the BiP 19–654 mutant by FICD 102–458 L258D, 30 min, western blot with αAMP antibody, against BiP WT: > 80 % decrease
BiP 19–654 V241A
  AMPylation of the BiP 19–654 mutant by FICD 102–458 L258D, 30 min, western blot with αAMP antibody, against BiP WT: > 95 % decrease
BiP 19–654 V415A
  AMPylation of the BiP 19–654 mutant by FICD 102–458 L258D, 30 min, western blot with αAMP antibody, against BiP WT: 70 % decrease
BiP 19–654 T229A T518A
  binding result: binds

B11: FICD 102–458 L258D H318A (enzyme)
chain: GKLEARAALNQALEMKRQGKREKAQKLFMHALKMDPDFVDALTEFGIFSEEDKDIIQADYLYTRALTISPYHEKALVNRDRTLPLVEEIDQRYFSIIDSKVKKVMSIPKGNSALRRVMEETYYHHIYHTVAIEGNTLTLSEIRHILETRYAVPGKSDEEQNEVIGMHAAMKYINTTLVSRIGSVTISDVLEIHRRVLGYVDPVEAGRFRTTQVLVGAHIPPHPQDVEKQMQEFVQWLNSEEAMNLHPVEFAALAHYKLVYIHPFIDGNGRTSRLLMNLILMQAGYPPITIRKEQRSDYYHVLEAANEGDVRPFIRFIAKCTETTLDTLLFATTEYSVALPEAQPNHSGFKETLPVKP
BiP 19–654 [3]
  AMPylation of BiP 19–654 WT by the FICD 102–458 L258D Fic-domain mutant, 30 min, western blot with αAMP antibody, against FICD L258D: 45 % impaired
